Four molecules from patent US20160046723A1 (BIONOMICS, published 2016) can be followed below.

Assay [1] deals with T1, human LGR4 on the cell surface (recombinant on CHO cells; endogenous on HEK-293T cells) (human, UniProt Q9BXB1 25-951).
T1 construct: also called CHO-LGR4; GPR48
In words: flow cytometry on CHO-LGR4 cells, PE anti-rat IgG secondary. The protocol:
(§1) A flow cytometry-based assay was used to measure the binding of purified anti-LGR4 antibodies 1C5 and 8F3 to recombinant human LGR4 protein overexpressed on the surface of CHO cells. CHO and CHO-LGR4 cells were stained with serial dilutions of anti-LGR4 antibodies at 4° C. Surface staining was detected with PE-conjugated anti-rat IgG secondary antibodies and analyzed on the FACSCalibur (FIG. 4A and FIG. 4B). […] An antibody control (pooled rat IgG) was used as a negative isotype control in these experiments as well as wild-type CHO without LGR4.
On the technique in general: Flow cytometry measures light scatter and fluorescence of single cells or particles in a stream.

For assay [2], the target named is T2, recombinant human LGR4 ectodomain-IgG-Fc fusion (R&D Systems) (human, UniProt Q9BXB1 25-540, limits assumed).
T2 construct: Bought construct; also called Human LGR4-Fc; LGR4-Fc; not shown: IgG Fc; detected with anti-human IgG Fc antibody
In words: BLI (Octet QK), biotinylated antibody on streptavidin tips, LGR4-Fc in solution, 1:1 global fit. The protocol:
(§2) Binding kinetics of LGR4 antibodies to human and mouse LGR4 were determined using label-free plate-based Octet QK instrument (Pall ForteBio, LLC, Menlo Park, Calif.) at 30 degrees. Biotinylated 1C5 and 8F3 LGR4 antibodies were diluted to 5 μg/mL in 1×PBS and immobilized on streptavidin tips (Pall ForteBio, LLC, Menlo Park, Calif.). Plate shaking speed was 1000 rpm. The antibodies were captured on the tips for 150 sec. To establish a baseline, the tips were transferred into wells containing binding buffer (1×PBS, supplemented with 0.1% bovine serum albumin and 0.05% Tween 20) for 60 sec. Human LGR4-Fc (R&D Systems) and mouse LGR4-Fc (R&D Systems) were diluted in binding buffer to 80 nM, 40 nM, 20 nM, 10 nM, 5 nM to make a concentration series. Additionally, a buffer-only well was used as reference. 1C5 and 8F3-coated tips were transferred into wells containing human LGR4 and mouse LGR4 dilution series for 180 sec to measure receptor association. The tips were then dipped into binding buffer for 300 sec to measure receptor dissociation.
(§3) Data were collected using ForteBio Data Acquisition software v7.1 and analyzed using ForteBio Data Analysis software v7.1. Data were referenced by subtracting signal from the buffer sample, and fitted to a 1:1 binding model using global fitting with unlinked Rmax. The experiment was repeated three times. Sample curve fits, kinetic rate constants, and KD for 1C5 and 8F3 LGR4 antibodies are shown below in Table 5.

In assay [3] the target is T3, recombinant mouse LGR4 ectodomain-IgG-Fc fusion (R&D Systems) (mouse, UniProt A2ARI4 25-540, limits assumed).
T3 construct: extracellular domain; Bought construct; also called mouse LGR4-Fc; murine LGR4; not shown: IgG Fc
The description is as above. The protocol: as §2, §3

Assay [4] has as its target T2, recombinant human LGR4 …. In words: ELISA, plate coated with 0.5 ug/mL hLGR4-Fc, biotinylated antibody detected with streptavidin-HRP. The protocol:
(§4) Binding of the anti-LGR4 antibodies to human and murine LGR4 was assessed in vitro using an ELISA-based plate binding assay. The assay measured biotinylated antibody binding to ELISA plate-bound purified recombinant, LGR4 ectodomain-IgG-Fc fusion, with detection of LGR4-bound antibody with horseradish peroxidase-conjugated streptavidin. […] Binding data from two of the antibodies, 8F3 and 1C5 are shown in FIGS. 5A and 5B, respectively.
In general terms: An ELISA detects its analyte on a solid surface through an enzyme-linked reagent.

For assay [5], the target named is T3, recombinant mouse LGR4 …. In words: ELISA, plate coated with 0.5 ug/mL mLGR4-Fc, biotinylated antibody detected with streptavidin-HRP. The protocol:
as §4

The target of assay [6] is T2, recombinant human LGR4 …. In words: BLI (Octet QK), biotinylated antibody on streptavidin tips, LGR4-Fc 5-80 nM in solution, 1:1 global fit, 30 degrees. The protocol: as §2, §3
(In general: BLI is a label-free optical method that tracks binding on a fibre tip over time.)

The target in assay [7] is T3, recombinant mouse LGR4 …. The assay is described as above. The protocol: as §2, §3
Assay [8] has as its target T2, recombinant human LGR4 …. In words: BLI (Octet QK), biotinylated antibody on streptavidin tips, LGR4-Fc in solution; exponent as printed (E+04), KD fits E-04. The protocol: as §2
(§5) Data were collected using ForteBio Data Acquisition software v7.1 and analyzed using ForteBio Data Analysis software v7.1. Data were referenced by subtracting signal from the buffer sample, and fitted to a 1:1 binding model using global fitting with unlinked Rmax. The experiment was repeated three times. […]

The target of assay [9] is T1, human LGR4 on the cell surface …. In words: flow cytometry on CHO-LGR4 cells, PE anti-rat IgG secondary [printed FIB. 4B]. The protocol:
as §1

For assay [10], the target named is T2, recombinant human LGR4 …. In words: BLI (Octet QK); receptor printed 'Human LGR4' a second time for 8F3, possibly mouse LGR4. The protocol:
as §2, §5

Assay [11] deals with T2, recombinant human LGR4 …. In words: BLI (Octet QK), biotinylated antibody on streptavidin tips, LGR4-Fc in solution; receptor printed 'Human LGR4' a second time for 8F3, possibly mouse LGR4. The protocol:
as §2, §5

Assay [12] deals with T2, recombinant human LGR4 …. In words: ELISA, plate coated with 2 or 1 ug/mL hLGR4-Fc, detected with HRP anti-human IgG-CH1. The protocol: (§6) Binding of the humanized anti-LGR4 antibodies 1C5HE and 1C5HG to human and LGR4 was assessed in vitro using an ELISA-based plate binding assay. The assay measured antibody binding to ELISA plate-bound purified recombinant LGR4 ectodomain-IgG-Fc fusion (R&D Systems), with detection of LGR4-bound antibody with horseradish peroxidase-conjugated anti-human IgG-CH1 secondary antibody.

Assay [13] concerns the target T2, recombinant human LGR4 …. In words: ELISA, plate coated with 2 ug/mL hLGR4-Fc, detected with HRP anti-human IgG-CH1. The protocol:
as §6

B1: anti-LGR4 rat monoclonal antibody 1C5 (antibody, V domains shown)
VH: QVQLQQSGAELVKPGSSVKISCKASGYTFTSNFMHWIKQQPGNGPEWIGWIYPGDGDTEYNQKFNGKATLIADKSSTTAYMQLRSLTSEDSAVYFCARGNSGYNWFAYWGQGTLVTVSS
VL: DIQMTQSPPVLSASVGDRVTLSCKASQNINKNLDWYQQKHGEAPRLLIYYTNNLQTGIPSRFSGSGSGTDYTLTISSLQPEDVATYFCYQYKSGNTFGAGTKLELK
notes: Rat monoclonal antibody purified from hybridoma supernatant; also called 1C5 mAb; biotinylated 1C5
In the case of B1, the “EC50 (read off the curve)” value is ~200 pM in [1], ~100 pM in [4] and ~100 pM in assay [5]. Besides, the results for the Kd in assay [2] and in [3] were 1470 pM and 1310 pM, respectively. In addition, the kon in assay [6] is 438000 M⁻¹ s⁻¹; in assay [7], 339000 M⁻¹ s⁻¹. For the same molecule, the off-rate (koff) in assay [8] turned out to be 0.000635 s⁻¹.

B2: anti-LGR4 rat monoclonal antibody 8F3 (antibody, V domains shown)
VH: QVQLQQSGAELVKPGSSVKISCKASGYTFTSYFIHWIKQQPGNGLEWIGWIYPGDGDTEYNQKFNGKATFIADKSSSTADMQLNSLTSEDSAVYFCARSKSAYNWFAYWGQGTLVTVSS
VL: DIQMTQSPPVLSASVGDRVTLSCKASQNINKNLDWYHQKHGEAPKLLIYYTNNLQTGIPSRFSGSGSGTDYTLIISSLQPEDVATYYCYQYNSGPTFGTGTKLELK
notes: Rat monoclonal antibody purified from hybridoma supernatant; also called 8F3 mAb; biotinylated 8F3
In the case of B2, the entries for the “EC50 (read off the curve)” value in [9], in assay [4] and in assay [5] were ~200 pM, ~100 pM and ~80 pM, respectively. Besides, the Kd in assay [10] and in [2] was 470 pM each time. The values for the kon in [6] and in assay [11] were 397000 M⁻¹ s⁻¹ and 357000 M⁻¹ s⁻¹, respectively.

B3: humanized anti-LGR4 antibody 1C5HG (antibody, human IgG1, V domains shown)
VH: EVQLVQSGAEVKKPGESLKISCKGSGYTFTSNFMHWVRQMPGKGLEWIGWIYPGDGDTEYNQKFNGKVTISADKSISTAYLQWSSLKASDTAMYYCARGNSGYNWFAYWGQGTTVTVSS
VL: EIVMTQSPATLSVSPGERATLSCKASQNINKNLDWYQQKPGQAPRLLIYYTNNLQTGIPARFSGSGSGTEFTLTISSLQSEDFAVYYCYQYKSGNTFGQGTKLEIK
notes: VH fused to the human IgG1 constant region, VL fused to the human kappa constant region; recombinant IgG from HEK 293 cells
Consider B3, for which the binding result in assay [12] is recorded as “binds”.

B4: humanized anti-LGR4 antibody 1C5HE (antibody, human IgG1, V domains shown)
VH: QVQLVQSGAEVKKPGASVKVSCKASGYTFTSNFMHWVRQAPGQGLEWIGWIYPGDGDTEYNQKFNGKVTMTRDTSTSTVYMELSSLRSEDTAVYYCARGNSGYNWFAYWGQGTTVTVSS
VL: EIVMTQSPATLSVSPGERATLSCKASQNINKNLDWYQQKPGQAPRLLIYYTNNLQTGIPARFSGSGSGTEFTLTISSLQSEDFAVYYCYQYKSGNTFGQGTKLEIK
notes: as for B3
On to B4, for which the “EC50 (read off the curve)” value in [13] was ~2000 pM.

For orientation: EC50 (read off the curve) means the concentration needed to bring the measured effect to its halfway point. Usually Kd stands for the concentration at which binding is half-saturated. The kon is the rate constant with which the complex forms. As usually defined, the koff is a measure of how fast the partners let go of each other.
